Earlier results, collected in publication PMC7340539.

Biological target: CD47 (Homo sapiens) (UniProt Q08722)
Chain of UniProt Q08722 (Q08722 19-323): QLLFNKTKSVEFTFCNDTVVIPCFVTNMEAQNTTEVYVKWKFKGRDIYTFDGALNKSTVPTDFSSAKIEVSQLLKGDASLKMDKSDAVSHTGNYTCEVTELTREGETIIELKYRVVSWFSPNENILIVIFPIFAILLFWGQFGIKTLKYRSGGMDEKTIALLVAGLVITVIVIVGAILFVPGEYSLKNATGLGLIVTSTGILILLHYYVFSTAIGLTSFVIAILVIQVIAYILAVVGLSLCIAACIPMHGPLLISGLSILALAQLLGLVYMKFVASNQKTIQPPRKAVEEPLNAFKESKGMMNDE

SIRPα ECD (from UniProt P78324)
Kd: 2000 nM
